Target: T1, Recombinant human VEGF R2 (R&D Systems, #357-KD) (human, UniProt P35968 20-764)
T1 construct: Immobilized by amine coupling on a CM5 chip (approx. 9,500 RU)
Assay: SPR (BIAcore T200): VEGF-A-121 (10 nM, pre-incubated with COMP-anti-VEGF-Fab) injected over amine-coupled VEGF R2
Method: Binding was investigated by surface plasmon resonance using a BIAcore T200 instrument (GE Healthcare). All experiments were performed at 25° C. using HBS-P (10 mM HEPES, 140 mM NaCl, 0.05% PS20, pH 7.4) as running and dilution buffer. Recombinant human VEGF R2 (R&D Systems, #357-KD) was immobilized on a Series S CM5 Sensor Chip (GE Healthcare) using standard amine coupling chemistry resulting a surface density of approx. 9,500 RU. […] Subsequently the surface was regenerated by injecting 10 mM Glycine solution (pH 2.0) for 60 sec., followed by 5 mM NaOH for 60 sec. at a flow rate of 5 μl/min. Bulk refractive index differences were corrected by subtracting the response obtained from a mock surface. Blank injections were subtracted (double referencing). The derived binding signals (resonance units RU) were plotted against the antibody concentrations to calculate IC₅₀ values.

T1 sequence (P35968 20-764 limits assumed): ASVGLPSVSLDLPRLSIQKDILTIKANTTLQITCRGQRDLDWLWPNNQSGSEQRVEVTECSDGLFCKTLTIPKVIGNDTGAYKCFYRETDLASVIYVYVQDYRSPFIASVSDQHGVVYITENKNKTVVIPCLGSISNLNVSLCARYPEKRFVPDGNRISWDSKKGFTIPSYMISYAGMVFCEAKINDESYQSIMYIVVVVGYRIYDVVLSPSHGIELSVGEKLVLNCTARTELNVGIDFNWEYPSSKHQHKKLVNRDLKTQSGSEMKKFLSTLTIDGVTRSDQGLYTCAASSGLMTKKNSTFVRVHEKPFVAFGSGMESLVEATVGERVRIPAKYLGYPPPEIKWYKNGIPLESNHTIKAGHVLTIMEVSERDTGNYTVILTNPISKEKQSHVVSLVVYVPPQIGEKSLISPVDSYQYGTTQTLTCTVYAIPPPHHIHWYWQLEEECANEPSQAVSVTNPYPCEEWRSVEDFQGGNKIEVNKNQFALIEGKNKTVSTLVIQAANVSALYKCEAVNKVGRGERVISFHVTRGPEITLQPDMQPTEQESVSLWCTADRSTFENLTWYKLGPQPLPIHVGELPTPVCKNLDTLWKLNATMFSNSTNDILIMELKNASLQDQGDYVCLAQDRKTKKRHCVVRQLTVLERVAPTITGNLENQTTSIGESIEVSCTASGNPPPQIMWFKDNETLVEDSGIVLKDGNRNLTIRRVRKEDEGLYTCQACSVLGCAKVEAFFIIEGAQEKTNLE

binding result: binds
B1: VEGF-A-121 (ligand, UniProt P15692-9 27-147, looked up)
chain: APMAEGGGQNHHEVVKFMDVYQRSYCHPIETLVDIFQEYPDEIEYIFKPSCVPLMRCGGCCNDEGLECVPTEESNITMQIMRIKPHQGQHIGEMSFLQHNKCECRPKKDRARQEKCDKPRR
notes: Used at 10 nM in solution, pre-incubated with the antibody molecules
